# Measured values from patent publication US20090269356.
# Target: complement C5 (full length) (Homo sapiens) (UniProt P01031)
# Assay: filter
# Details: dRmY: A,G deoxy; C,U 2'-OMe; dot blot, DPBS
# Chain of complement C5 (full length) (Homo sapiens) (P01031 whole entry): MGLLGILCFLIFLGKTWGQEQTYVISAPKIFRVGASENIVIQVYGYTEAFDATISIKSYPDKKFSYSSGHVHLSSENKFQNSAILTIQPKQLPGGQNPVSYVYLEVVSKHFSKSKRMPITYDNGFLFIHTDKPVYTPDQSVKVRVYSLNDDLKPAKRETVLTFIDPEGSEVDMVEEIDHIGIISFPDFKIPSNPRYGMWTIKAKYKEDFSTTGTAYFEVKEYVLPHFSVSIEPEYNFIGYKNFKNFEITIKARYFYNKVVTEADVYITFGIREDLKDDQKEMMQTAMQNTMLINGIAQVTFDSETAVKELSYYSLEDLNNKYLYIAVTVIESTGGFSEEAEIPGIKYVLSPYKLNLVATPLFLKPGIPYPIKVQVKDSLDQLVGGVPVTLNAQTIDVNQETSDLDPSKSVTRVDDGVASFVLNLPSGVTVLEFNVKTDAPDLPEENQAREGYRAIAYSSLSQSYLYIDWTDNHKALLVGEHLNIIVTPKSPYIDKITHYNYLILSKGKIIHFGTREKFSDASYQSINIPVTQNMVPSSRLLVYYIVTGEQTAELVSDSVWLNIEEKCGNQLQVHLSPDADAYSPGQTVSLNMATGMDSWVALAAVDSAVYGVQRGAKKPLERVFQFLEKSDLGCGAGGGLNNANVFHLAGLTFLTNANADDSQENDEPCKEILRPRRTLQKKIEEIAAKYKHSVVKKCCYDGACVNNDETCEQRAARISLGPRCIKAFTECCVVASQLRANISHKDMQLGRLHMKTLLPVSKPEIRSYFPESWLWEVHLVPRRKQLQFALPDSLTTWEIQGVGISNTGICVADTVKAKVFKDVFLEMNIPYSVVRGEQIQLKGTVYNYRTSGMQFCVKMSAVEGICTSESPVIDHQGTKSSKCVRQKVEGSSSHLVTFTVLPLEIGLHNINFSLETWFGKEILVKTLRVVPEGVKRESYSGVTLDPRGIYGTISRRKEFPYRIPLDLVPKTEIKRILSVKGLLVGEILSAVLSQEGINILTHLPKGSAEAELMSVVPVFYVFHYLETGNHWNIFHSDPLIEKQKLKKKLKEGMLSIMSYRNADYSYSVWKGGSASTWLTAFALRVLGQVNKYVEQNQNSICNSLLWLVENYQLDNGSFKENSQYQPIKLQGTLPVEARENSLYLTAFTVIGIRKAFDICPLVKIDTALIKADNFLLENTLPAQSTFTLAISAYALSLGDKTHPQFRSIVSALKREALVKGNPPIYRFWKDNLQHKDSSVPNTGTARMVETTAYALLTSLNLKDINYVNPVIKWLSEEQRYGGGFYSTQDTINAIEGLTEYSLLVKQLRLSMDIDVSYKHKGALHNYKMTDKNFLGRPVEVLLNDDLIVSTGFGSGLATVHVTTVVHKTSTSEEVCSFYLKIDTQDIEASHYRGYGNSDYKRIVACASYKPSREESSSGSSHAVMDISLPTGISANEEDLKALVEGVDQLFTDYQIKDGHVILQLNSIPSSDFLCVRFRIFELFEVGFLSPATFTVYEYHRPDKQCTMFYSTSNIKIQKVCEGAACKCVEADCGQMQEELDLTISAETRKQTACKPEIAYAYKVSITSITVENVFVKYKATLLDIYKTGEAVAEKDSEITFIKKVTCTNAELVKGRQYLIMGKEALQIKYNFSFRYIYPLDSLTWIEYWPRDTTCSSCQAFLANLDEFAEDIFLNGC
sequence,measurement,value
GGGAGAGGAGAGAACGUUCUACCUUGGUUUGGCNCAGGCAUANAUACGCACGGGUCGAUCGGUUACGACUAGCAU [doped clone SEQ 96],Kd,0.084 µM
